The record followed here is the RNAGym collection of RNA variant scans (doi:10.7554/elife.80360).

The chains are these.
B1: HDV Ribozyme (parent)
chain: GGCCGGCAUGGUCCCAGCCUCCUCGCUGGCGCCGGCUGGGCAACAUUCCGAGGGGACCGUCCCCUCGGUAAUGGCGAAUGGGACCCA

In the data set the parent is B1. As to the kind of experiment: self-cleavage, relative activity (ratio to wild type); higher = more cleavage; co-transcriptional.
In the case of GGCCGGCAUGGUCCCAGCCUUCUCGCUGGCGCCGGCUGGGCAACAUUCCGAGGGGACCGUCCCCUCGGUAAUGGCGAAUGGGACCGA, the self-cleavage was determined as 0.253.
Then GGCCGGCAUGGUCCCAGCCUCCUCGCUGGUGCCGGCUGGGCAACAUUCCCAGGGGACCGUCCCCUCGGUAAUGGCGAAUGGGACCCA, with 0.677.
Regarding GCCCGGCAUGGUCCCAGCCUCCUCGCUGGCGCCGGCUGGGCAACAUUCCGAGGGGACCAUCCCCUCGGUAAUGGCGAAUGGGACCCA, the self-cleavage was 0.0193.
In the case of GGCCGGCAUGGUCCCAGCCUCCUCGCUGGCGCCGGCUGGGCAACAUUCCGAGGGGACCGUCCCCUCGGUAAUGGCGAAUGGGAACCC, the self-cleavage amounted to 0.758.
As for GGCCGGCAUGGUCCCAGCCUCCUCGCUGGCGCCGGAUGGGCAAUAUUCCGAGGGGACCGUCCCCUCGGUAAUGGCGAAUGGGACCCA, the figure is 0.208; as for GGCCGGCAUGGUCCCAGCCUCCUCGCUGGCGCCGGCUGGGCAACGUUCCGAGGCGACCGUCCCCUCGGUAAUGGCGAAUGGGACCCA, 0.65; as for GGCCGGCAUGGUCCCAGCCUCCUCGCUGGCUCCGGCUGGGCAACAGUCCGAGGGGACCGUCCCCUCGGUAAUGGCGAAUGGGACCCA, 0.38.
Turning to GGCCGGCAUGGUCCCAGCCUCCUCGCUGGCGCCGGCUGGGCAGCAUUCCGAGGGGACCGUCCCCUCGGUAAUGGCGAGUGGGACCCA, the self-cleavage is 0.119.
Then GGCCGGCAUGGUCCCAGCCUCCUCUCUGGCGCCGGCUGGGCAACAUUCCGAGGGGACCGUCCCCUCGGUAAUGGCGAAUGGGACCGA, with 0.256.
With GGCCGGCAUGUUCCCAGCCUCCUCGCUGGCGCCGGCUGGGCAACAUUCCGAGGGGACCGUCCCCUCGGUAAUGGCGAACGGGACCCA, the self-cleavage was 0.0652.
In the case of GGCCGGCAUGGUCCCAGCCUCCUCGCUGUCGCCGGCUGGGCAACAUUCCGAGGGGACCGUCCCCUCGGUAAUGGCGAAUGGGACCCC, the self-cleavage was determined as 0.0349.
As for GGCCGACAUGGUCCCAGCCUCCUCGCUGGCGCCGGCUGGGCAACAUUCCGAGGGGACCCUCCCCUCGGUAAUGGCGAAUGGGACCCA, the figure is 0.587.
Then GGCCGGCAUGGUCCCAGCCUCCUCGCUGGCGCCGGCUGGGCAACAUUCCGAGGGGACCGACCCCUCGGUAAUGGCGAAUGUGACCCA, with 0.151; and GGCCGGCAUGGUCCCAGCCUCCUCGCUGGCGCCGGCUGGGCAACAUUCCGAGGGGACCGUCCCGUCGGUAAUGGCGAAUGGGACCCG, with 0.853; and GGCCGGCAUGGUCCCAGCCUCCUCGCUGGCGCCGGCUGGGCAGCAUUCCGAGGGGACCGUCCCCUCGGUAAUGGCGAAUGGGACCAA, with 0.712.
In the case of GGCCGGCAUGGUCCCAGCCUCCUCGCUGGCGCCGGCGGGGCAACAUUUCGAGGGGACCGUCCCCUCGGUAAUGGCGAAUGGGACCCA, the self-cleavage worked out at 0.
As for GGCCGGCAUGGUCCGAGCCUCCUCGCUGGCGCCGGCUGGGCAACAUUCUGAGGGGACCGUCCCCUCGGUAAUGGCGAAUGGGACCCA, the figure is 0.554; as for GGCCGGCAUGGUCCCAGCCUCCCCGCUGGCGCCGGCUGGGCAACAUUCCGAGGGGACCGUCCCCUCGGUAAUGGCGAAUGGGACCUA, 0.6.
Then GGCCGGCAUGGUCCCAGCCUCCUCGCUGGCGACGGCUGGGCAACAUUCCGAGAGGACCGUCCCCUCGGUAAUGGCGAAUGGGACCCA, with 0.234.
Turning to GGGCGGCAUGUUCCCAGCCUCCUCGCUGGCGCCGGCUGGGCAACAUUCCGAGGGGACCGUCCCCUCGGUAAUGGCGAAUGGGACCCA, the self-cleavage stood at 0.0683.
Then GGCCGGCAUGGUUCCACCCUCCUCGCUGGCGCCGGCUGGGCAACAUUCCGAGGGGACCGUCCCCUCGGUAAUGGCGAAUGGGACCCA, with 0.217; and GGCCGGCAUGGUCCCAGCCUCCUCGCUGGCGCCGGCUGGGCAACAUUCCGACGGGUCCGUCCCCUCGGUAAUGGCGAAUGGGACCCA, with 1.12; and GGCCGUCAUGGUCCCAGCCUCCUCGCUGGCGCCGGCUGGGCAACAUUCCGAGGGGACCGUCCACUCGGUAAUGGCGAAUGGGACCCA, with 0.594.
As for GGCCGGCAUGGGCCCAGCCUCCUCGCUGGCGCCGGCUGUGCAACAUUCCGAGGGGACCGUCCCCUCGGUAAUGGCGAAUGGGACCCA, the figure is 0.447.
As for GGCCGGCAUGGUCCCAGCCUCCUCGCUGGCGCCGGCUGGGCAACAUUCCGAGGGGACCGUCCCCUCGGUAAUGGCGCAUGGGACCCG, the figure is 0.208; as for GGCCGGCAUGGUCCCAGUGUCCUCGCUGGCGCCGGCUGGGCAACAUUCCGAGGGGACCGUCCCCUCGGUAAUGGCGAAUGGGACCCA, 0.0297.
As to GGCCGGCAUGGUCUCAGCCUCCUCGCUGGCGCCGGCUGGGCAACAUUCCGAGGGGACCGUCCCCUCGGUAAUGGCGAAUGGGACGCA, the self-cleavage was 0.712.
Then GGCCGGCAUGGUCCCAGCCUCCUCGCUGACGCCGGCUGGGCAACAUUCCGAGGGGACCGUCCCCUCGGUAAUGGCGAAUGGGACGCA, with 0.119; and GGCCGGCAUGGUCCCGGCCUCCUCGCUUGCGCCGGCUGGGCAACAUUCCGAGGGGACCGUCCCCUCGGUAAUGGCGAAUGGGACCCA, with 0.0519.
Then GGCCGGCAUGGUCCCAGCCUCCUCGCUGGCGCGGGCUGGGCAACAUUCCGAGGGGACCGUCACCUCGGUAAUGGCGAAUGGGACCCA, with 0.225; and GGCCGGCAUGGUCCCAGCCUCCUCGCUGGCGCCGGCUGGGCAACAUUCCGAGGGGUCCGUCCACUCGGUAAUGGCGAAUGGGACCCA, with 0.969; and GGCUGGCAUGGUCCCAGCCUCCUCGCUGGCGCCGGCUGGGCAACAUUCCGAGGGGACCGUCCCCUCGGUAUUGGCGAAUGGGACCCA, with 0.776.
